Measurements as given in a protein production outcome set (Wang et al. 2014).

Experiment: label from the status in PepcDB records
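Further: failed if final PepcDB status was selected cloned or expressed and not failed if soluble or beyond.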

| Sequence | protein production |
| --- | --- |
| MLKLSCNVTDHIHNLFSNSRRIFVPVHRQTRPISCFQLKKEPLRAILSADHGNSSVRVADTVSGTSPADRLRFGRLMEDGFSYKEKFIVRSYEVGINKTATIETIANLLQEVACNHVQNVGFSTDGFATTLTMRKLHLIWVTARMHIEIYKYPAWSDVVEIETWCQSEGRIGTRRDWILKDCATGEVIGRATSKWVMMNQDTRRLQRVTDEVRDEYLVFCPPEPRLAFPEENNSSLKKIPKLEDPAQYSMLGLKPRRADLDMNQHVNNVTYIGWVLESIPQEIIDTHELKVITLDYRRECQQDDIVDSLTTSETPNEVVSKLTGTNGSTTSSKREHNESHFLHILRLSENGQEINRGRTQWRKKSSR | failed |
| MSLIMITAEMVPPDLLIKRLAIYLKENVKTVDPPEWALLAKTASFKERVPDNAEDWWYIRAASLLRKLYVNSIIGIEKTRTIYGGRKRRGTRPEKFVKAPGHVNRLIFQQLEKAGLVQKIKNKGRSLSPKGRSLLDKLALEIFKELAENNTSLKVYLELEHHHHHH | not failed |
| MSADSNSTDADPTAHWSFETKQIHAGQHPDPTTNARALPIYATTSYTFDDTAHAAALFGLEIPGNIYTRIGNPTTDVVEQRIAALEGGVAALFLSSGQAAETFAILNLAGAGDHIVSSPRLYGGTYNLFHYSLAKLGIEVSFVDDPDDLDTWQAAVRPNTKAFFAETISNPQIDLLDTPAVSEVAHRNGVPLIVDNTIATPYLIQPLAQGADIVVHSATKYLGGHGAAIAGVIVDGGNFDWTQGRFPGFTTPDPSYHGVVFAELGPPAFALKARVQLLRDYGSAASPFNAFLVAQGLETLSLRIERHVANAQRVAEFLAARDDVLSVNYAGLPSSPWHERAKRLAPKGTGAVLSFELAGGIEAGKAFVNALKLHSHVANIGDVRSLVIHPASTTHAQLSPAEQLATGVSPGLVRLAVGIEGIDDILADLELGFAAARRFSADPQSVAAF | not failed |
| MSLAQYPVIGIDDDEFATAKKLITKQEVRAVTLSKLRLQDDLVMWDIGAGSASVSIEASNLMPNGRIFALERNPQYLGFIRDNLKKFVARNVTLVEAFAPEGLDDLPDPDRVFIGGSGGMLEEIIDAVDRRLKSEGVIVLNAVTLDTLTKAVEFLEDHGYMVEVACVNVAKTKGLTEYKMFESHNPVYIITAWKSDEGHHHHHH | not failed |
| MDPSQFNPTYIPGSPQMLTEENSRDDSGASQISSETLIKNLSNLTINASSESVSPLSEALLRRESVGAAVLREIEDEWLYSRRGVRTLLSVQREKMARLRYMLLGGVRTHERRPTNKEPKGVKKESRPFKCPCSFCVSNGWDPSENARIGNQDTKPLQP | failed |
| DSGYSRETRALLFRAYRHDPTFAYLFNAEREGYEQRVLATIRQLVKQHFLQNQPALGLFLEDRLVGVALIAPPLRRLGVTESWAWRLRMVMDTGLGCTQRYLAYYNAVLACLPSETVHVLPLIGLDPEFQGQKMGQDLSEQLLAALHDWCAVDENSQGIVVDTGNPRYLEFYKRQGYEEIGEIAVGPV | not failed |
| PSGATGKDGLAIPVGKDTAKSSLTVWEDFRCPACKIFETTYRPTLHELVGAGKLKIDYHLVTIIDDGRGGSGSRQAANAAACAQDAGKFTAYHDVLYDNQPDETVDSFADDSKLIELAGKVDGLDTPAFRKCVKDGTHNSWVVKSNAAFDSGGFKGTPTVLFGGKNLAADPTMTPAKLKQMVEAANK | failed |
| MGSSHHHHHHENLYFQGTSVMITENQSVNAKGKYEKMNRLYDTNKLHQYYSGPSYELTNVSGQSQGYYDSNVLLFNQQNQKFQVFLLGKDENKYKEKTHGLDVFAVPELVDLDGRIFSVSGVTKKNVKSIFESLRTPNLLVKKIDDKDGFSIDEFFFIQKEEVSLKELDFKIRKLLIKKYKLYEGSADKGRIVINMKDENKYEIDLSDKLDFERMADVINSEQIKNIEVNLK | not failed |
| MLKKLIEKVKSLTSVIKIVFFISVLVLIIVEMIHLKRTISVEQLKSVFGQLSPMNLFLIILVGVIAVLPTTGYDFVLNGLLRTDKSKRYILQTSWCINTFNNLSGFGGLIDIGLRMAFYGKKGQEKSDLREVTRFLPYLISGLSFISVIALIMSHIFHAKASVDYYYLVLIGASMYFPVIYWISGHKGSHYFGDMPSSTRIKLGVVSFFEWGCAAAAFIIIGYLMGIHLPVYKILPLFCIGCAVGIVSLIPGGLGSFELVLFTGFAAEGLPKETVVAWLLLYRLAYYIIPFFAGIYFFIHYLGSQINQRYENVPKELVSTVLQTMVSHLMRILGAFLIFSTAFFENITYIMWLQKLGLDPLQEQMLWQFPGLLLGVCFILLARTIDQKVKNAFPIAIIWITLTLFYLNLGHISWRLSFWFILLLLGLLVIKPTLYKKQFIYSWEERIKDGIIIVSLMGVLFYIAGLLFPIRAHITGGSIERLHYIIAWEPIALATLILTLVYLCLVKILQGKSCQIGDVFNVDRYKKLLQAYGGSSDSGLAFLNDKRLYWYQKNGEDCVAFQFVIVNNKCLIMGEPAGDDTYIREAIESFIDDADKLDYDLVFYSIGQKLTLLLHEYGFDFMKVGEDALVNLETFTLKGNKYKPFRNALNRVEKDGFYFEVVQSPHSQELLNSLEEISNTWLEGRPEKGFSLGYFNKDYFQQAPIALVKNAEHEVVAFANIMPNYEKSIISIDLMRHDKQKIPNGVMDFLFLSLFSYYQEKGYHYFDLGMAPLSGVGRVETSFAKERMAYLVYHFGSHFYSFNGLHKYKKKFTPLWSERYISCSRSSWLICAICALLMEDSKIKIVK | failed |
| VRPDGRGKVTGELKYMTDLSFPGMLYGKVLRSAYPHAEIVSVCTIKAEKMEGVQAVVTHKDVPGLNRFGIVIPDQPVLCEDRVRYVGDAIAAVAAETEEIAEAALELIQVEYKELEVMDSPEKALRPNAQRLHEDGNILHRAFFSNGDVEEGFQASDTVFEETYELPRQMHTYMETEGGVAVPEDDGGFTMYAGTQHGYKDRFQLARIFDIPEEKIRIVSSPMGGSFGGKDELNIQPYAALLALKSGRPVKIHQTRKESVRSGIKRHPMKITIKTGADHSGNLLAHDVKIVADTGAYATLGPAVLDFSVEHAAGPYRIPNIRTEGISVFTNNGVAGEFRGFGGNQITFALETHLDRLSGMLGIDPLELRRKNIRKPHDLGPLEHRIAPTDGAAQVLNAISKSPILKKTSRNCGYLQRGTGAAITMHGGGLGFGRMDAAGGRLSLSSEGKITASFGFEECGQGILAAIEQIVMEELGCAAEDISIVIGDTAKVPKSGSSTASRGTSMVWHAIQRLKKPFLAQLKKRAAEWSGCSAENLIPGAAGLRDKNTKALVVTYKELAEKGPLAEETAFDFPTTPDPVVGGHFLYSFGAAAVEVEVDLLTGDVKLIDCEHAIAAGPVVSPQGYRGQIEGGAAMALGYTLMEEAKMTDGRYAAENLDHYLIPGIKDVPDMKLIAIEDLMKGDVYGPRGVGEIGTIAITPAIVKAVHDAVGCWINKLPISREELLEAIDRKGL | failed |
| QSNVVIMQDPGGGYGDALRKVMYDPFEKETGIKVVTVQEARSGPRIKAQAEAGKAQWDLTFIFDQETKLLGDCCLADIDYSKLSESAHKTLAAMPDNLKRKKGVALQVIGVGLVYNKDKFKGDKAPQTWADFWDVKKFPGRRCMPAWPRFTFEAALMADGVTKDKLYPIDMDRALKKLKEIKPHVVKWWTTAAQPPQLILDGEADMCLAYTGSMSKLALEGAPIDLTFNQGFVYYDFFSIPKGAPNYDNALKLLSWRLDPKRAAQLTSTFPVALPSKVVFDAATDKNIARYWANNPENVAKAIEWSPDFWGAPSPAGNSTNEEYGQEKLNAMLAQ | not failed |
| MTQKTGALIFDETADRYDIRFDLNDYYGGLHCGDCLEVFVRGKWKPTRMEYGDNWYLVGVRASDLNGLRVRILEHHHHHH | failed |
| EQEDRALRSFKLSVTVDPKYHPKIIGRKGAVITQIRLEHDVNIQFPDKDDGNQPQDQITITGYEKNTEAARDAILRIVGELEQM | not failed |
| MSDIKKLGSSWIINWFFGFNQIPTNEDSSIYMKSVLTCAKADGVISPEEKDWALGFCASWGVADWVIEDLKTYEADEALEEVIARSPQVSMAQRDILLSAIWVSAADGELHEKEKAKIRKMATILGIKEEIVDQLEQLYYYEAALRQKRLNLLYPQKSPY | not failed |
| MSLTTSKTRKSGVAMTEKLELDPARTAIVLIEYQNEFTSDGGVLHGAVADVMQHTGMLANTVAVVDAARQAGVPIMHAPITFAEGYGELTRHPYGILKGVVDGKAFVKGTWGAAIVDELAPVNGDIVIEGKRGLDTFASTNLDFILRSKGVDTIVLGGFLTNCCVESTMRTGYERGFRVITLTDCVAATSQEEHNNAISYDFPMFSVPMTSADVIAALEGHHHHHH | not failed |
| SILKIEKVLKRMREIKNELLQAQNPSELYLSSKTELQGLIGQLDEVSLEKNPCIREARRRAVIEVQTLITYIDLKE | not failed |
| MAIHVGIIDQDPVRLVTPLLDHRTVSRHIIFIGDHTQTVIYQRLSDVLNKRNISTDFFEIPAGSNTSAIKSAIRELAETLKARGEEVKFNASCGLRHRLLSAYEVFRSYHWPIFVVEPNSDCLCWLYPEGNNDTQVQDRITIADYLTIFGARGEFNEHQLSPQLDQQLYQLGERWASNALELGPGLATLNYLATTCRKEQKLDVELSDKQQGYRELNLLLSDLVEAKIASYENGILTFINEEARRFANGEWLETLVHSTVKQIQDDMPTIQDRSLNVQVYRQLGEREVRNELDVATVVNNKLHIIECKTKGMRDDGDDTLYKLESLRDLLGGLQARAMLVSFRPLRHNDITRAEDLGLALIGPDELKDLKTHLTQWFKAAGGN | not failed |
| METPKGTIIFTTVGRTHYGFDVFSLNIATSVERRLTDGVSVNFNAQFVNDKSDDVVFVSERNGSARIYKTRSGISKPEQIPGAPESYFHDRPIITQNNRLYFISAHEQPDRYFKNWSALYTVELNSAKREVTRVTPPDTADFSPAVSQSGDFLAVASYGTRSWGGEFHEINTDITVFKASKPETRVVICERGGWPTWSGDSTVFFHHQADDGWWSIFRVDIPENFTEYTDFPITPIRVTPSGLHCFTPAAFRDGKRIALATRRRGVNHRHIEIYDLENTTFQPVTESLNPSFHHYNPFVSPDSEFLGYHRFRGESTQGESIVPNIESIVSPIKTLRLLRINGSFPSSSPNGDLIALNSDFDINGGIKVSKSDGSKRWTLIKDRTAFYNSWSPTERHVIYTSLGPIFSPARIAVQIARIKFDPSDLTADKEDLPCDVKILTLENTGNNAFPSCSPDGKSIVFRSGRSGHKNLYIVDAVNGESNGGGIRRLTDGPWIDTMPCWSPKGDLIGFSSNRHNPENTAVFGAYVVRPDGTGLRRIQISGPEGSEEAARERVNHVSFNKDGDWLVFAANLSGVTAEPVTMPNQFQPYGDLYVVKLDGTGLRRLTWNGYEDGTPTWHTADELDLSQLNLNGQDGDKLEGQFEEPLWISCDI | failed |
| MPAIMPMLWKQPFGNNLWGLKMKKVEKLLIIGIVLISSILLGAMTLAKPAQANASIVIVIDNEVKHRIPLMVEEEMQTYEFKFGEQTGYLEVKNGKVRMLEMPKEICPEGICSETGWIARSSQAIVCLPNKIIVTIQGLDDKNDEIL | failed |
| MKMDTGALTFQQKIYWLVKQIPLGRVATYGQIAALCGWPRHGRYVGYALYRVAPNSDIPWHRVVNAQGKISYAPQRRGTDELQRWRLAAEGIIFTAGDRINLRRYQWQPPATVYQQLIWPEGAATDSAKALEHHHHHH | not failed |
| GQGVSRSGALDLGALRSANRTVGNPSDMACVESVLGGLSFSCHGSAVIAITGAHTPVTITSASGLQWQASNYQPIELETGDRVSLGSPKAGLRSYLAIRGGFDVTPVLGSLSTDTLAQLGPEALATGDRLGFTAPVNGTSVSLNEAPAFELPTTANIVTLDVVMGPRTDWFTENAIQRLSSQLWRVTPQSNRVGIRLAGDTPLERSNHQELPSEGTSVGAIQVPASGQPVLFLADHPLTGGYPVIASVASHHLDLAGQIPVNAQIRFNPLGAFEEMQPSTEASFSTADAKNNS | failed |
| MPAFRVPRVRRAQHAEVALGAVLGVMLIGLSVLISRFHLQPVEGVTVLAQLADASLGHNWAFYVVQFATMILLALSANTSFGGLPVLLKLPARDNYLPHVFALKADRQVHRHGVLTLAGVVAALLVFSGGDTNTLVPLFAIGVFIGFTIAQVGMVRHWRAE | failed |
